{"source": "patent US7459156", "about": "(University of California, dated 2008)", "binders": {"B1": {"name": "nerve growth factor (NGF) (ligand, mouse, UniProt P01139 122-241, looked up)", "chain": "SSTHPVFHMGEFSVCDSVSVWVGDKTTATDIKGKEVTVLAEVNINNSVFRQYFFETKCRASNPVESGCRGIDSKHWNSYCTTTHTFVKALTTDEKQAAWRFIRIDTACVCVLSRKATRRG", "modifications": "125I label on the NGF used in the binding assays", "notes": "mature; The species is stated only for the unlabelled NGF; the labelled NGF was bought"}}, "key": {"[1]": {"target": "T1, rat trkA receptor (full length, 140 kD) (rat, UniProt P35739 33-799)", "T1 construct": "whole, on cells; also called p140trk; native trkA receptor protein", "T1 sequence (P35739 33-799)": "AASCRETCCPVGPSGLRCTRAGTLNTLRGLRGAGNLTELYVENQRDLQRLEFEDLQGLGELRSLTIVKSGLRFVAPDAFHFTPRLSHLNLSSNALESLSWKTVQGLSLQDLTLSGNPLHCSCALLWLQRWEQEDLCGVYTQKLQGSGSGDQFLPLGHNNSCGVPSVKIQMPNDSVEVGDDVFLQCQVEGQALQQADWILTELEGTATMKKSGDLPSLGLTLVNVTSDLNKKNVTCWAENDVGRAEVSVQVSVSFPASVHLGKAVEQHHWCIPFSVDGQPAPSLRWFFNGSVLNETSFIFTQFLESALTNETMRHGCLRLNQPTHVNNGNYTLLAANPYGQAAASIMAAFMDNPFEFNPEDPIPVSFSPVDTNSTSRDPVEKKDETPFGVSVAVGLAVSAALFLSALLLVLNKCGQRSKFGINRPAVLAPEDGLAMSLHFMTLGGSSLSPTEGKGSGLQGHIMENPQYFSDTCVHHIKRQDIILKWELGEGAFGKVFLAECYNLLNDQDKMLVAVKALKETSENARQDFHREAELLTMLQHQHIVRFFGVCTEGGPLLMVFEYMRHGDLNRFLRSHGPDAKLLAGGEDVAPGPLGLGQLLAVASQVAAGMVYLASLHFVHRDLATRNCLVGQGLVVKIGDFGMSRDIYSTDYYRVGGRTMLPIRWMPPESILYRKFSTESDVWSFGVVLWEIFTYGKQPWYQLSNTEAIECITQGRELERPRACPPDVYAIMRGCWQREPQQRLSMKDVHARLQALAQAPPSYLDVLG", "experiment": "equilibrium ^125I-NGF binding to PC12 cells, Scatchard/LIGAND; control IgG present; high affinity site", "experimental": "(§1) Binding Assays. […] Nonspecific binding was determined by addition of […] unlabeled NGF, and ranged from 2-25% of specific binding. Determinations were made in triplicate. The equilibrium binding data from two experiments were combined for the Scatchard analysis (Scatchard, G., *Analys of NY Acad. Sciences* 5:660-672 (1949)), which was performed with the program LIGAND (Munson, P. J. and Rodbard, D., *Anal. Biochem.*, 107, 220-239 (1980)). The Scatchard data are plotted as fmoles bound per 10^5 cells (equivalent to a volume of 2×10^-4 liters).\n(§2) To analyze the characteristics of the NGF binding sites remaining in the presence of the anti-LNGFR or -trkA antibodies, equilibrium binding assays were performed from 3.5 to 4000 pM NGF. The results are plotted by the Scatchard method in FIG. 2. As is now well known, PC12 cells have NGF binding sites with differing kinetic characteristics, leading to low and high affinity binding sites (Schechter and Bothwell, 1981). This is observed in the biphasic graph of NGF binding determined in the presence of control IgG (FIG. 2, open squares; the binding parameters are presented in Table 1).\n(§3) FIG. 2 is an analysis of anti-LNGFR- and RtrkA.EX-resistant NGF binding sites. […] Nonspecific binding was determined as in FIG. 1A; values were determined in triplicate."}, "[2]": {"target": "T2, low affinity nerve growth factor receptor (LNGFR) on PC12 cells (rat, UniProt P07174 30-425)", "T2 construct": "whole, on cells", "T2 sequence (looked up)": "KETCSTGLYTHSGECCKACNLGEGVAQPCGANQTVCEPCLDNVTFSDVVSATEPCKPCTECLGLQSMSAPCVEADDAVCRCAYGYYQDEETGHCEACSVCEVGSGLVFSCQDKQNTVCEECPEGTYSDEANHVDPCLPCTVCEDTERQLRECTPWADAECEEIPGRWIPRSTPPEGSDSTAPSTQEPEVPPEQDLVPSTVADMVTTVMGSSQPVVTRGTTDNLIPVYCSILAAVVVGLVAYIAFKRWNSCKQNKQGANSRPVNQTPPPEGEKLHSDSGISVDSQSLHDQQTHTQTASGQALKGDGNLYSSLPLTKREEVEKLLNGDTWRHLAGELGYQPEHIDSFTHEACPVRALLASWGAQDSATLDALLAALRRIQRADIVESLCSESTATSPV", "experiment": "equilibrium ^125I-NGF binding to PC12 cells, Scatchard/LIGAND; 500 ug/ml RtrkA.EX IgG present; remaining low affinity site", "experimental": "as §1, §2, §3"}, "[3]": {"target": "T2, low affinity nerve growth factor …", "experiment": "equilibrium ^125I-NGF binding to PC12 cells, Scatchard/LIGAND; control IgG present; low affinity site", "experimental": "as §1, §2, §3"}, "[4]": {"target": "T1, rat trkA receptor (full length, 140 kD)", "experiment": "equilibrium ^125I-NGF binding to PC12 cells, Scatchard/LIGAND; 500 ug/ml anti-LNGFR IgG present; remaining high affinity site", "experimental": "as §1, §2, §3"}}, "data": [{"binder": "B1", "values": [{"measurement": "Kd", "setting": "[1]", "result": 0.038, "unit": "nM"}, {"measurement": "Kd", "setting": "[2]", "result": 1.1, "unit": "nM"}, {"measurement": "Kd", "setting": "[3]", "result": 1.8, "unit": "nM"}, {"measurement": "Kd", "setting": "[4]", "result": 0.092, "unit": "nM"}]}]}
